Experimental data: patent US20210155712A1

Experiments:
[1] = target: recombinant human HER3 (human) (UniProt P21860); test: BLI (Octet QK384), antibody on AHC sensors, His-tagged human HER3 in solution, absence of human NRG1
[2] = target: human HER3:human NRG1 complex (human) (UniProt Q02297); test: BLI (Octet QK384), antibody on AHC sensors, human HER3-NRG1 complex (1:1 molar ratio) in solution, presence of human NRG1
[3] = target: human HER3 expressed on cells (human) (UniProt P21860); test: flow cytometry, HEK293T HER3 O/E cells, 10 ug antibody, FITC channel

Chain of anti-HER3 antibody clone LJM716 (VH): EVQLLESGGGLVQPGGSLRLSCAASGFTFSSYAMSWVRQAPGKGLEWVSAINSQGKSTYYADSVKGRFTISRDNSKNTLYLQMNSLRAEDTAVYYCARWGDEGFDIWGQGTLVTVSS
Chain of anti-HER3 antibody clone LJM716 (VL): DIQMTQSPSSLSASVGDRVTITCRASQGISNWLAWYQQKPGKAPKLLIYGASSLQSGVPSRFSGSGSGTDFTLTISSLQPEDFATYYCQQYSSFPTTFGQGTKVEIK

anti-HER3 antibody clone LJM716 showed a Kd [1] of under 1 pM, a Kd [2] of 16.8 nM and a % Parent (HER3 positive) [3] of 74.4%.
